The target of one test is T1, human Trop-2-His protein (human, UniProt P09758 27-274).
T1 construct: extracellular domain; Assay paragraphs say only 'Trop-2-His'; also called hTrop-2; Kactus Cat #TRP-HM121; not shown: His tag
T1 sequence (looked up): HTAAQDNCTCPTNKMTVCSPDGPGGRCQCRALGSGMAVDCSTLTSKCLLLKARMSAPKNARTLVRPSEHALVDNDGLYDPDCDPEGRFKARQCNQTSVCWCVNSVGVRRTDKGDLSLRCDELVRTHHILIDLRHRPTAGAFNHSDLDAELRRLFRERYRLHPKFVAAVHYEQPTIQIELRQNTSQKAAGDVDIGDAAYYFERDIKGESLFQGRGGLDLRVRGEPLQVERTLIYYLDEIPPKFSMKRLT
Nature of the test: BLI (Gator Plus), purified Ab on HFC probe. As for the experimental part:
The affinity of the binding of the exemplary anti-Trop-2 antibodies of the present disclosure were determined. Assay was performed using Gator Plus according to the protocol recommended by Gator Bio Inc.. Briefly, human Trop-2-His (Kactus) was 1:4 fold serially diluted starting at 1 μg/ml. After three times of regeneration and neutralization of HFC probe, 1 μg/ml of antibody to be tested in Q buffer was immobilized onto HFC probe. […] The association and dissociation of human Trop-2-His antigen from antibody was measured on BLI machine Gator Plus. Affinity was calculated using Gator Bio analysis software. Blank control was used for reference subtraction. Sacituzumab govitecan was used as positive control.

The target of test [1] is T2, human Trop-2 expressed on cell surface (human, UniProt P09758 27-323).
T2 sequence (looked up): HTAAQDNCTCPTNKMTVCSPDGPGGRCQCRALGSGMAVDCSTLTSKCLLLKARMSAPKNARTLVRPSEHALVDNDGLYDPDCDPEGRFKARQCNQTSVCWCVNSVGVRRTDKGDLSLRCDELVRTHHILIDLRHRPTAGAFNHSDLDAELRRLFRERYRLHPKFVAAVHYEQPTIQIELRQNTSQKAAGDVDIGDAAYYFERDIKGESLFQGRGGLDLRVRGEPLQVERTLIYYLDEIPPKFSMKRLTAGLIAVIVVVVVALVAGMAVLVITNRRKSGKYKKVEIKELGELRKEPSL
Nature of the test: cell-based or functional assay.

A further test addresses T3, human Trop-1 (EpCAM) (human, UniProt P16422 24-265, limits assumed).
T3 sequence (looked up): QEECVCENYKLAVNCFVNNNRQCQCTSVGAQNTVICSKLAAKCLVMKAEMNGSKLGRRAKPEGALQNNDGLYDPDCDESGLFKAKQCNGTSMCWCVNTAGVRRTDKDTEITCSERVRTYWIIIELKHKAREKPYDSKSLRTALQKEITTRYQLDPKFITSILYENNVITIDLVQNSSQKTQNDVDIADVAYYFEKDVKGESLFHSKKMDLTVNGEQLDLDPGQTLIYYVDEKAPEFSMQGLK
Nature of the test: ELISA, similar to Table 24. As for the experimental part: (§1) Purified antibodies were tested by ELISA to confirm their binding and affinity against human and cynomolgus Trop-2-His protein. Briefly, 96-well Maxisorp plates (Nunc) were coated with 100 μl/well of 0.5 μg/ml human (Kactus Cat #TRP-HM121, or Sino Biological, Cat #10428-HO8H) or cynomolgus Trop-2 protein (Kactus Cat #TRP-CM121, or Sino Biological, Cat #90893-CO8H) diluted in 1×PBS (GIBCO) overnight at 4° C. Plates were washed four times with 300 μl/well washing buffer (1×PBST, diluted from 20×PBST (Thermo Scientific) with distilled water)) and then blocked with 300 μl/well of blocking buffer (1×PBST/3% BSA (BSA, Sigma)) for 2 hours at RT on plate shaker at 100 rpm. Plates were washed and added with 100 μl/well of testing antibodies, which were serial diluted with assay buffer (PBST/1% BSA). The antibodies were incubated at room temperature for 2 hours on plate shaker at 100 rpm. Plates were washed. One hundred microliters (100 μl) of 1:10,000 diluted horseradish peroxidase (HRP) conjugated anti-hIgG antibody (Jackson Immuno Research) was added into each well and incubated at room temperature for 1 hour on plate shaker at 100 rpm. Plates were washed and added with 100 μl/well TMB substrate for color development in dark at room temperature for up to 10 minutes. After addition of 50 μl/well of stop solution (1N H₂SO₄), plates were read at 450 nm on a plate reader (SpectraMax M5). EC₅₀ values were calculated using Graphpad Prism. Sacituzumab govitecan, was used as positive control. Anti-HEL.hIgG1 was used as isotype control.
(§2) Similar assays were performed to test whether the exemplary antibodies of the present disclosure bind to human Trop-1 (EpCAM) or mouse Trop-2 (Kactus, Cat #TRP-MM121) or rat Trop-2 (kactus, Cat #TRP_RM121). No binding of the exemplary antibodies of the present disclosure to human Trop-1 (EpCAM) or mouse or rat Trop-2 has been detected.

The target of a further test is T4, mouse Trop-2 (mouse, UniProt Q8BGV3 25-270, limits assumed).
T4 construct: also called Kactus Cat #TRP-MM121
T4 sequence (looked up): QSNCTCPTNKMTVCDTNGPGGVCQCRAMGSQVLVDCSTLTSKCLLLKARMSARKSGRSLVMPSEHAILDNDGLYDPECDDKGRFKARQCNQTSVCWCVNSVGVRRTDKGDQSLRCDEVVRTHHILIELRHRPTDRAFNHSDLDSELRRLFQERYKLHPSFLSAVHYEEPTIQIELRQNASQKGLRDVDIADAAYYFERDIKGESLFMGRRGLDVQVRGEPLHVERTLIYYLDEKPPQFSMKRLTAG
As to the kind of experiment: ELISA, similar to Table 24. As for the experimental part: as §1, §2

In the next test the target is T5, rat Trop-2 (rat, UniProt Q6P9Z6 25-270, limits assumed).
T5 sequence (looked up): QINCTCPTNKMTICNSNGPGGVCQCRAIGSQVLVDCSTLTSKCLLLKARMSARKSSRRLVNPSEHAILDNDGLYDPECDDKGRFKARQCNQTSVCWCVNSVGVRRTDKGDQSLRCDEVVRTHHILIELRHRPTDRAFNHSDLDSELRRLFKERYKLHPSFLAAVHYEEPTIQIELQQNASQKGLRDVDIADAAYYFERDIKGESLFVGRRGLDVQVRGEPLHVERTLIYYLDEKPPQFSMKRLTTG
Nature of the test: ELISA, similar to Table 24. Here is the method: as §1, §2

B1: 74F11/15F5 (antibody, human IgG1, V domains shown)
VH: QEQLKESGGGLVQPGGSLKLSCKASGFDFNNYGMSWVRQAPGKGLEWIAYIYPAFHNTYYANWVNGRFTISSDNAQNTVDLQLNSLTAADTATYFCARDAGSTDYNFNLWGPGTLVTVSS
VL: DVVMTQTPASVEAAVGGTVTIKCQASEDIERYLAWYQQKPGQPPKLLIYEASKLPSGVSSRFSGSGYGTEFTLTISGVECADAATYYCQQALTIGYVDNPFGGGSEVVVK
notes: LEM construct: VH + rabbit IgG CH1 + human IgG1 CH2-CH3
Regarding B1, in the test with human Trop-2-His protein, the Kd came to 0.01 nM, the koff turned out to be 9e-06 s⁻¹ and the kon turned out to be 707000 M⁻¹ s⁻¹. For the same molecule, in test [1], the “Internalization %, MCF-7, 0.25 µg/ml, 1 h” value is 22%; the “Internalization %, MCF-7, 0.25 µg/ml, 2 h” value came to 35%; the “Internalization %, MCF-7, 0.25 µg/ml, 4 h” value is 64%; the “Internalization %, MCF-7, 0.5 µg/ml, 1 h” value is 22%. In addition, in test [1], the “Internalization %, MCF-7, 0.5 µg/ml, 2 h” value is 54% and the “Internalization %, MCF-7, 0.5 µg/ml, 4 h” value came out at 50%. Moreover, the binding result with human Trop-1 (EpCAM) is recorded as “no binding”. In the test with mouse Trop-2, the binding result is on record as “no binding”. In addition, the binding result with rat Trop-2 is reported as “no binding”.

B2: 9D7-2 (antibody, V domains shown)
VH: QSLEESGGDLVQPGASLTLTCKASGFDLNNYSILWVRQAPGKGLEWIGSIYISGGSTYYANWAKGRFAISKTSSTTVTLQMTSLTAADTATYFCARDDGTASYYLNLWGPGTLVTVSS
VL: YDMTQTPASVSEPVGGTVTIKCQASEDIYKLLAWYQQKPGQPPKLLIYAASDLESGVPSRFKGRGSGTDYTLTISDLEAADAATYYCQQAYTIGNIDNSFGGGTEVVVK
As for B2, in the test with human Trop-2-His protein, the Kd worked out at 2.86 nM, the koff was 0.00126 s⁻¹ and the kon was 438000 M⁻¹ s⁻¹. In addition, in test [1], the “Internalization %, MCF-7, 0.25 µg/ml, 1 h” value amounted to 29%; the “Internalization %, MCF-7, 0.25 µg/ml, 2 h” value was 42%; the “Internalization %, MCF-7, 0.25 µg/ml, 4 h” value stood at 57%; the “Internalization %, MCF-7, 0.5 µg/ml, 1 h” value stood at 28%. In test [1], the “Internalization %, MCF-7, 0.5 µg/ml, 2 h” value came to 42% and the “Internalization %, MCF-7, 0.5 µg/ml, 4 h” value amounted to 52%. Also, the binding result in the test with human Trop-1 (EpCAM) is listed as “no binding”. Also, the binding result in the test with mouse Trop-2 is reported as “no binding”. Also, in the test with rat Trop-2, the binding result is listed as “no binding”.

B3: 10A9 (antibody, V domains shown)
VH: QSLEESGGDLVQPGASLTLTCKASGFDLNNYAMLWVRQAPGKGLEWIGCIYISGGTTYFASWATGRFAISKTSSTTVTLQMTSLTAADTATYFCARDDGTTSYYLNLWGPGTLVTVSS
VL: YDMTQTPASVSAAVGGTVTIKCQASEDIYSLLAWYQQKPGQPPKLLIYGASNLESGVPSRFKGSGSGTEYTLTISDLECDDAATYYCQQAYTIGNIDNAFGGGTEVVVK
notes: Rabbit-derived clone; LEM construct: VH + rabbit IgG CH1 + human IgG1 CH2-CH3
With B3, in the test with human Trop-2-His protein, the Kd worked out at 0.18 nM, the koff was found to be 8.2e-05 s⁻¹ and the on-rate constant (kon) was determined as 448000 M⁻¹ s⁻¹. Further, in test [1], the “Internalization %, MCF-7, 0.25 µg/ml, 1 h” value came to 15%; the “Internalization %, MCF-7, 0.25 µg/ml, 2 h” value was determined as 33%; the “Internalization %, MCF-7, 0.25 µg/ml, 4 h” value was 45%; the “Internalization %, MCF-7, 0.5 µg/ml, 1 h” value is 26%. For the same molecule, in test [1], the “Internalization %, MCF-7, 0.5 µg/ml, 2 h” value came to 39% and the “Internalization %, MCF-7, 0.5 µg/ml, 4 h” value turned out to be 49%. For the same molecule, the binding result with human Trop-1 (EpCAM) is recorded as “no binding”. In addition, in the test with mouse Trop-2, the binding result is reported as “no binding”. In addition, the binding result in the test with rat Trop-2 is “no binding”.

B4: 10A9-2 (antibody, V domains shown)
VH: QSLEESGGDLVQPGASLTLTCKASGFDLNNYAMLWVRQAPGKGLEWIGSIYISGGTTYFASWATGRFAISKTSSTTVTLQMTSLTAADTATYFCARDDGTTSYYLNLWGPGTLVTVSS
VL: YDMTQTPASVSAAVGGTVTIKCQASEDIYSLLAWYQQKPGQPPKLLIYGASNLESGVPSRFKGSGSGTEYTLTISDLEADDAATYYCQQAYTIGNIDNAFGGGTEVVVK
With B4, in the test with human Trop-2-His protein, the Kd worked out at 2.66 nM, the koff worked out at 0.00089 s⁻¹ and the on-rate (kon) was 335000 M⁻¹ s⁻¹. In test [1], the “Internalization %, MCF-7, 0.25 µg/ml, 1 h” value was determined as 28%; the “Internalization %, MCF-7, 0.25 µg/ml, 2 h” value is 37%; the “Internalization %, MCF-7, 0.25 µg/ml, 4 h” value turned out to be 48%; the “Internalization %, MCF-7, 0.5 µg/ml, 1 h” value came to 31%. For the same molecule, in test [1], the “Internalization %, MCF-7, 0.5 µg/ml, 2 h” value came out at 47% and the “Internalization %, MCF-7, 0.5 µg/ml, 4 h” value came to 64%. The binding result in the test with human Trop-1 (EpCAM) is on record as “no binding”. For the same molecule, the binding result with mouse Trop-2 was “no binding”. In the test with rat Trop-2, the binding result is given as “no binding”.

B5: 5D4 (antibody, V domains shown)
VH: QQLEESGGGLVKPEGSLTLTCKGSGFDFSGTYWMWWVRQAPGKGLEWIACIYVGSGSSTYYASWAKGRFTISSTSSTAVTLQATSLTAADTATYFCARGATNNVFMNYFNLWGPGTLVTVSS
VL: FEMTQTPSSVSEPVGGTVTIKCQASEDISSNLGWYQQKPGQPPKLLIYGASTLASGVPSRFKGSGSGTEFTLTISDLECADAATYYCQTSYYIDDGVNGFGGGTEVVVK
notes: as for B3
Regarding B5, in the test with human Trop-2-His protein, the Kd is 0.03 nM, the koff amounted to 1.3e-05 s⁻¹ and the kon amounted to 522000 M⁻¹ s⁻¹. Also, in test [1], the “Internalization %, MCF-7, 0.25 µg/ml, 1 h” value came to 44%; the “Internalization %, MCF-7, 0.25 µg/ml, 2 h” value turned out to be 52%; the “Internalization %, MCF-7, 0.25 µg/ml, 4 h” value worked out at 64%; the “Internalization %, MCF-7, 0.5 µg/ml, 1 h” value came out at 62%. Further, in test [1], the “Internalization %, MCF-7, 0.5 µg/ml, 2 h” value was 59% and the “Internalization %, MCF-7, 0.5 µg/ml, 4 h” value was found to be 74%. In the test with human Trop-1 (EpCAM), the binding result was “no binding”. For the same molecule, the binding result with mouse Trop-2 is “no binding”. The binding result with rat Trop-2 is on record as “no binding”.
